According to PMC5050020, “The C9ORF72 GGGGCC expansion forms RNA G-quadruplex inclusions and sequesters hnRNP H to disrupt splicing in ALS brains”:

B1: 4R (structured_RNA)
RNA: GGGGCCGGGGCCGGGGCCGGGGCC
B2: 4R-7dG (ssRNA)
RNA: GGGGCCGGGGCCGGGGCCGGGGCC
modifications: all G replaced by 7-deaza-G (transcribed with 7-deaza-GTP)

Target: T1, hnRNP H1 (recombinant) (UniProt P31943 1-449)
T1 sequence: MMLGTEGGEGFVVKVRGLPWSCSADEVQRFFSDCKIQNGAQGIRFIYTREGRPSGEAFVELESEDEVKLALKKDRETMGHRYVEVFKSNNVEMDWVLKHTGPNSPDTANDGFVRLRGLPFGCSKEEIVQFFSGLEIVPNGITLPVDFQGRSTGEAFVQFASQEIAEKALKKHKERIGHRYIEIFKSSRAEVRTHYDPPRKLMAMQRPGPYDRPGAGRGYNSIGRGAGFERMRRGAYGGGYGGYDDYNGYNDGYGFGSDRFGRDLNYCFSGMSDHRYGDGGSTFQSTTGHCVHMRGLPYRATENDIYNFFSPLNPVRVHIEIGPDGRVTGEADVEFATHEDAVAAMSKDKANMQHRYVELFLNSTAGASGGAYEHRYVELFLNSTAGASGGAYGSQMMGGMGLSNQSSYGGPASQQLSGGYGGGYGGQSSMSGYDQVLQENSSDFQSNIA
Assay: EMSA; 30 nM tRNA; EMSA: 50 mM Tris pH 8, 50 mM NaCl, 2 mM EDTA, 0.5% BSA, 0.2% CHAPS, 0.3 nM RNA, 30 nM tRNA, 0-640 nM H1, 30 min 37 C, native 6% PAGE. UV crosslinking: ~1 nM RNA in U87 nuclear extract
Settings: protein: recombinant, (pRSET-C vector, Ni-NTA), label: 32P

| Binder | Kd (G-quadruplex, can be intramolecular) [nM] | Kd (G-quadruplex destabilized) [nM] |
| --- | --- | --- |
| B1 | 75.5 ± 14 | – |
| B2 | – | 13.5 ± 3 |
